Experimental data published in patent publication US20220289850 (published 2022).
Substitutions are numbered along the chain they refer to. Values belong to the binder of their own block, whether it stands above or below them.

Key:
human integrin avb6 [1] = biological target: T1, human integrin avb6 (human, UniProt P06756); assay: ELISA
T1 chain 1: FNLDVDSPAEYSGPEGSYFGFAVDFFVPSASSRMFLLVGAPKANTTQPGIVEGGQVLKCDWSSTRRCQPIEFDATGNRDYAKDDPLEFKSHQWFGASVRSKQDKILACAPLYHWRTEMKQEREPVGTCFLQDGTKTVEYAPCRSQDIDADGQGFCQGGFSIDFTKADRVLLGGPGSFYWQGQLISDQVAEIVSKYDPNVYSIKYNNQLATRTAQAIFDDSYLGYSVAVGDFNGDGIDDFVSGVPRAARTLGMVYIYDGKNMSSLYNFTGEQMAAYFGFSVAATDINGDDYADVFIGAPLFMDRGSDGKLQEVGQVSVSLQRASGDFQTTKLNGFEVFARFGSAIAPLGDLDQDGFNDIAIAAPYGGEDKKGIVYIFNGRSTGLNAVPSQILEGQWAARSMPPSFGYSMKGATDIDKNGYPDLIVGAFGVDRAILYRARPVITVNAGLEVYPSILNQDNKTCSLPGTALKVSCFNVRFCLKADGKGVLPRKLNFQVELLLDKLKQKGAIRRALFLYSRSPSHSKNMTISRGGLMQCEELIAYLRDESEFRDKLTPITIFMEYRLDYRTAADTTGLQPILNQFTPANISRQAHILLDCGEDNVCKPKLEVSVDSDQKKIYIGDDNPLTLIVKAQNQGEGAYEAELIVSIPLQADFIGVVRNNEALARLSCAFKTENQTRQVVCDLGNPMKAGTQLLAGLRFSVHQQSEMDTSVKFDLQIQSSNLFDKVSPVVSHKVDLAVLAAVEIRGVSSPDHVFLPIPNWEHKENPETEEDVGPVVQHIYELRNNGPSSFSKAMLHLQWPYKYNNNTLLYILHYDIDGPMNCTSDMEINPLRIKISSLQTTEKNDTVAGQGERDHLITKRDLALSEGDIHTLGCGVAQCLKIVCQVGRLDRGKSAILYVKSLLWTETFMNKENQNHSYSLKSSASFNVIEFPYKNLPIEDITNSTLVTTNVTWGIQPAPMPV
T1 chain 2: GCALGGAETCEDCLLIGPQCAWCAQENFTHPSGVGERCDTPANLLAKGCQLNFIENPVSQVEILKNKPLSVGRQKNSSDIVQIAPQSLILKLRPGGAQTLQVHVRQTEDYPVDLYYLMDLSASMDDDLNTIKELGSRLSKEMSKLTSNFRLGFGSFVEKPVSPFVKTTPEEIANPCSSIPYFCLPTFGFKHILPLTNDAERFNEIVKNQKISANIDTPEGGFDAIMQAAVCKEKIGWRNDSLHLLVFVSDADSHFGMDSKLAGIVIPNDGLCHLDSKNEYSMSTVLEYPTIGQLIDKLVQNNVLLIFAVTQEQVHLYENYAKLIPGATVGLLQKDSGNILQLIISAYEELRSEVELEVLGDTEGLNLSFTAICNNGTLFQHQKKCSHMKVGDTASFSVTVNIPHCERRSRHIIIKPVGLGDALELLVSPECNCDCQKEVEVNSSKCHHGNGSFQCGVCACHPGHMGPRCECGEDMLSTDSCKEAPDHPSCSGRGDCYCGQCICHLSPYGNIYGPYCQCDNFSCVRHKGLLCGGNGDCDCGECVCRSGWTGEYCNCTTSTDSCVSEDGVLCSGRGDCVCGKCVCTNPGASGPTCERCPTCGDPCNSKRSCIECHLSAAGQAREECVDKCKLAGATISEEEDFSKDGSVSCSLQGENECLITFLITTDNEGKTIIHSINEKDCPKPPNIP

human integrin avb3 = biological target: T2, human integrin avb3 (human, UniProt P06756); assay: SPR
T2 chain 1: T1 chain 1
T2 chain 2: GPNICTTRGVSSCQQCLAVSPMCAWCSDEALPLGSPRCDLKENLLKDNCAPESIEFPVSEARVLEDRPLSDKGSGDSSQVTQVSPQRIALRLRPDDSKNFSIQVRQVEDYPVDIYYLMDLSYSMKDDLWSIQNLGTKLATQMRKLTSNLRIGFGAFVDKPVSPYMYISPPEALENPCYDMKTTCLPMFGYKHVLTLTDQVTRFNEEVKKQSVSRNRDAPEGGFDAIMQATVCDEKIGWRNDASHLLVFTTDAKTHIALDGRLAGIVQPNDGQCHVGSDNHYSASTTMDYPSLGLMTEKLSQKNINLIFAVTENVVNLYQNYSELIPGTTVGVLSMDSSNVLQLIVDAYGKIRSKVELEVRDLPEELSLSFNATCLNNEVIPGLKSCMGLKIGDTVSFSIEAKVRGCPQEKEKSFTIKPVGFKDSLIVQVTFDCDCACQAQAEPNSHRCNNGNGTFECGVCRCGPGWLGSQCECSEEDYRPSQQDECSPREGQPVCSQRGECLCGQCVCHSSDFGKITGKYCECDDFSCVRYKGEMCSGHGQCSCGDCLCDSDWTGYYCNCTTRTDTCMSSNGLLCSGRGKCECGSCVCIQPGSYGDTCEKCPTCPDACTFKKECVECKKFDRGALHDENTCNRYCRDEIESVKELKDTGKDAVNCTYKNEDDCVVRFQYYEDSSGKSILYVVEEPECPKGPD

human integrin avb8 = biological target: T3, human integrin avb8 (human); assay: SPR
T3 chain 1: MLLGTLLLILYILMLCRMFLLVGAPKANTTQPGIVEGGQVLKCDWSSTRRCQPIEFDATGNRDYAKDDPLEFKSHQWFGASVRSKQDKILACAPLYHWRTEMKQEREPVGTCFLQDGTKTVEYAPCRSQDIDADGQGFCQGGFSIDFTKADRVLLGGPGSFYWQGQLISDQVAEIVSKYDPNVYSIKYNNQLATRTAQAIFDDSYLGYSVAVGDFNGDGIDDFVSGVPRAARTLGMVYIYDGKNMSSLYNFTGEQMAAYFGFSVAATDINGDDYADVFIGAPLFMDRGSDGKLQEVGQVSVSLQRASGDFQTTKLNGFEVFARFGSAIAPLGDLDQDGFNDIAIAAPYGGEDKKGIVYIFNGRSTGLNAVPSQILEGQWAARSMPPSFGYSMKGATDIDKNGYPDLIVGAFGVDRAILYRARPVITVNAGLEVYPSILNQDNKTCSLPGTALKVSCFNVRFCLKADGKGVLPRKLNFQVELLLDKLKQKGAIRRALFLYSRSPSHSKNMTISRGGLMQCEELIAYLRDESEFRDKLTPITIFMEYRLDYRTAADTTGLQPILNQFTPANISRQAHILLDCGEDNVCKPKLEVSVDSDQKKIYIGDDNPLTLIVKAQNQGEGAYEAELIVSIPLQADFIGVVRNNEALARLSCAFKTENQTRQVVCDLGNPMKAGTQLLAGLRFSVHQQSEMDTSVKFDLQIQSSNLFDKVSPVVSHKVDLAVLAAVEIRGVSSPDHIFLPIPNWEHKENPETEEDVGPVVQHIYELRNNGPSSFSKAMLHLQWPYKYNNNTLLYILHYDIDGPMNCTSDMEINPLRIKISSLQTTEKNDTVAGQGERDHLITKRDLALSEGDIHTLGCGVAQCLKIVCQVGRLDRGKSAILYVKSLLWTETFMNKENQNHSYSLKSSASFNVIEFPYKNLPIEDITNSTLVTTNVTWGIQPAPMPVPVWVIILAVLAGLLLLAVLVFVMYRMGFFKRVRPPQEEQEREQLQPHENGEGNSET
T3 chain 2: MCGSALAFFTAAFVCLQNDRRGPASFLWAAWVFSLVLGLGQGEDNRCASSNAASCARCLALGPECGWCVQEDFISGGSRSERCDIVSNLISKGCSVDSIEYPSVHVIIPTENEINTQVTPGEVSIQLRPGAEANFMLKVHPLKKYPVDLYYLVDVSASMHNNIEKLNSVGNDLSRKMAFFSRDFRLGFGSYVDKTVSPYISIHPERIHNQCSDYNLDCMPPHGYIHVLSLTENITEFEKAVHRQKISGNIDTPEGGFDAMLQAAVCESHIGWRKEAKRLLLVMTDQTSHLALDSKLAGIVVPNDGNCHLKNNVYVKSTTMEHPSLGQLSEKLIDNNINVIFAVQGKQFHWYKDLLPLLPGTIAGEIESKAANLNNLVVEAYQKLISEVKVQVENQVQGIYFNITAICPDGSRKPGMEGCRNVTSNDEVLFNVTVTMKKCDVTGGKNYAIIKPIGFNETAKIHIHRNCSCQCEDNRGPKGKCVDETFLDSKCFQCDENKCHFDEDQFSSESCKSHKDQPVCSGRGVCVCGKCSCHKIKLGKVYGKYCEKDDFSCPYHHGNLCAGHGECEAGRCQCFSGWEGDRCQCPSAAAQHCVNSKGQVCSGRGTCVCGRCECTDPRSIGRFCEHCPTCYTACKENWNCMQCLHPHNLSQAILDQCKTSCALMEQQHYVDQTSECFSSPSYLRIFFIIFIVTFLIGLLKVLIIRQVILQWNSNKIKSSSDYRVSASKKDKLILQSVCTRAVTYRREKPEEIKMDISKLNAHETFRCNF

human integrin avb6 [2] = biological target: T1, human integrin avb6; assay: SPR

binding result (human integrin avb6 [1]): no binding
binding result (human integrin avb3): no binding
B1: Mouse hybridoma ADWA-11 IgG (antibody, V domains shown)
VH: EVQLQQSGAELVRPGAFVKLSCKASGFNIKDYYMNWVLQRPEQGLEWIGWIDPDNGNTIYDPKFQGKASITADTSSNTAYLQLSSLTSEDTAVYYCARRLLMDYWGQGTSVTVSS
VL: DIVMTQAAPSVPVTPGESVSISCRSTKSLLHFNGNTYLFWFLQRPGQSPQRLIYYMSNLASGVPDRFSGRGSGTDFTLRISRVEAEDVGVYYCMQSLEYPFTFGTGTKLEIK

Kd (human integrin avb8): 0.37 nM
B2: ADWA11 VH03/VK02 Fab (antibody, V domains shown)
VH: EVQLVESGGGLVQPGGSLRLSCAASGFNIKDYYMNWVRQAPGKGLEWVGWIDPDNGNTIYDPKFQGRFTISADNAKNSAYLQMNSLRAEDTAVYYCARRLLMDYWGQGTLVTVSS
VL: DIQMTQSPSSLSASVGDRVTITCRSTKSLLHFNGNTYLFWFQQKPGKAPKRLIYYMSNLASGVPSRFSGSGSGTDFTLTISSLQPEDFATYYCMQSLEYPFTFGQGTKVEIK

binding result (human integrin avb6 [2]): no binding
binding result (human integrin avb3): no binding
B3: ADWA11 VH05-2/VK01 antibody (antibody, V domains shown)
VH: B2 VH with N74T, A75S
VL: B2 VL with F41Y

Kd (human integrin avb8): 6.86 nM
B4: ADWA11 VH01/VK01 Fab (antibody, V domains shown)
VH: B2 VH with G49A, A72R, A79L
VL: B2 VL with F41Y

Kd (human integrin avb8): 1.89 nM
B5: ADWA11 VH02/VK01 Fab (antibody, V domains shown)
VH: B2 VH with G49A, A79L
VL: B2 VL with F41Y

Kd (human integrin avb8): < 0.1 nM
B6: ADWA11 VH03/VK01 Fab (antibody, V domains shown)
VH: B2 VH
VL: B2 VL with F41Y
